From article PMC5152705

Legend:
[1] = biological target: recombinant fragment of human SP-A (rfhSP-A) (human); assay: SEC; gel permeation chromatography, Superdex 200 HR 10/30, TBS with 5 mM EDTA, pH 7.4; rfhSP-A purified by mannan affinity chromatography; also after freeze/thawing
[2] = biological target: recombinant fragment of human SP-A (rfhSP-A) (human); assay: SEC; gel permeation chromatography, Superdex 200 HR 10/30, TBS with 5 mM EDTA, pH 7.4; rfhSP-A after IMAC and removal of the NT tag; quaternary structure estimated by comparison with molecular weight standards

- stoichiometry N [1]: 3
- percent dimeric [2]: 15%
- percent monomeric [2]: 9%
- percent trimeric [2]: 72%
- stoichiometry N [2]: 3
Substance: recombinant fragment of human SP-A (rfhSP-A) (domain or fragment)
